The values that follow come from publication PMC11417369, “DNA sequence and chromatin differentiate sequence-specific transcription factor binding in the human malaria parasite Plasmodium falciparum”.

This series deals with T1, PF3D7_0420300 D1 (Plasmodium falciparum, UniProt Q8I1N6 1956-2015).
T1 sequence: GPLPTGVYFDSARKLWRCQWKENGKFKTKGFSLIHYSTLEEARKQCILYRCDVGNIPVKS
The series is described as follows: gcPBM; about 25 ug protein; PBS, 1% milk, 0.2 mg/ml BSA, salmon testes DNA, 0.03% Triton X-100. The settings on record: tags: N-terminal GST (pGEX-4T-1), kept; label: surface-attached array probe.

B1: CACACA_site1453 (dsDNA)
DNA 1: ATATTATGTGATTGTGCACACTGGAGATTTTTTTTA
DNA 2: TAAAAAAAATCTCCAGTGTGCACAATCACATAATAT
With B1, the binding signal was 9.58 ln median PBM intensity, better of two orientations.

B2: CACACA_site8720 (dsDNA)
DNA 1: TATGTATTAAATTTTACACACATGATTCTCTATATG
DNA 2: CATATAGAGAATCATGTGTGTAAAATTTAATACATA
Regarding B2, the binding signal is 9.65 ln median PBM intensity, better of two orientations.

B3: CACACA_site55 (dsDNA)
DNA 1: CTCAATATTATTACTACACACAAATTAATATTTTCC
DNA 2: GGAAAATATTAATTTGTGTGTAGTAATAATATTGAG
As for B3, the binding signal was 9.54 ln median PBM intensity, better of two orientations.

B4: CACACA_negctrl_site412 (dsDNA)
DNA 1: ATAAAAAGGTTTAAAAAAAAAAAAAAAAAAAAAAAA
DNA 2: TTTTTTTTTTTTTTTTTTTTTTTTAAACCTTTTTAT
For B4, the binding signal is 8.38 ln median PBM intensity, better of two orientations.

B5: CACACA_site3328 (dsDNA)
DNA 1: TGTATTTATAGCAATACACACATAACAATAAATATA
DNA 2: TATATTTATTGTTATGTGTGTATTGCTATAAATACA
B5: the binding signal is 9.56 ln median PBM intensity, better of two orientations.

B6: CACACA_site2544 (dsDNA)
DNA 1: TATTATTTATTATATGCACACATCGAACTATTATTT
DNA 2: AAATAATAGTTCGATGTGTGCATATAATAAATAATA
Take B6: the binding signal is 9.56 ln median PBM intensity, better of two orientations.

B7: CACACA_negctrl_site1559 (dsDNA)
DNA 1: ATATTAAAATGAAAATATAAAAAAAAAAAAAAAAAA
DNA 2: TTTTTTTTTTTTTTTTTTATATTTTCATTTTAATAT
Regarding B7, the binding signal was 8.43 ln median PBM intensity, better of two orientations.

B8: CACACA_negctrl_site29 (dsDNA)
DNA 1: TTTTTTTTTTTTTTTTTTTTTTTGCTCAGTGTGGTA
DNA 2: TACCACACTGAGCAAAAAAAAAAAAAAAAAAAAAAA
Regarding B8, the binding signal was 8.55 ln median PBM intensity, better of two orientations.

B9: CACACA_site4699 (dsDNA)
DNA 1: AAACAGAAGACATATACACACATACAAAAAAGTGCA
DNA 2: TGCACTTTTTTGTATGTGTGTATATGTCTTCTGTTT
Take B9: the binding signal is 9.75 ln median PBM intensity, better of two orientations.

B10: CACACA_site5336 (dsDNA)
DNA 1: TATAATAATAAAAACACACACGTTGATTGTATTAGC
DNA 2: GCTAATACAATCAACGTGTGTGTTTTTATTATTATA
Take B10: the binding signal is 9.66 ln median PBM intensity, better of two orientations.

B11: CACACA_site8829 (dsDNA)
DNA 1: TATGTAAAAAATTTAACACACACATATATATATATA
DNA 2: TATATATATATATGTGTGTGTTAAATTTTTTACATA
As to B11, the binding signal was 9.57 ln median PBM intensity, better of two orientations.

B12: CACACA_site254 (dsDNA)
DNA 1: TTTAATTATAAGATAACACACAAAAAAAATAAAATA
DNA 2: TATTTTATTTTTTTTGTGTGTTATCTTATAATTAAA
B12: the binding signal is 9.6 ln median PBM intensity, better of two orientations.

B13: CACACA_site632 (dsDNA)
DNA 1: ATATAATATTAGTGCACACACAAAAATGTACTAAAC
DNA 2: GTTTAGTACATTTTTGTGTGTGCACTAATATTATAT
As for B13, the binding signal was 9.79 ln median PBM intensity, better of two orientations.

B14: CACACA_site6664 (dsDNA)
DNA 1: CATATATTTTGAAACACACACATATAAAATATACAT
DNA 2: ATGTATATTTTATATGTGTGTGTTTCAAAATATATG
As for B14, the binding signal is 9.81 ln median PBM intensity, better of two orientations.

B15: CACACA_site2604 (dsDNA)
DNA 1: GAAAATATTACATACACGCACACATTAATATATTTA
DNA 2: TAAATATATTAATGTGTGCGTGTATGTAATATTTTC
With B15, the binding signal is 9.59 ln median PBM intensity, better of two orientations.

B16: CACACA_site7314 (dsDNA)
DNA 1: CAATGTTAACATATTACACACATATGTATTTATAAC
DNA 2: GTTATAAATACATATGTGTGTAATATGTTAACATTG
For B16, the binding signal is 9.55 ln median PBM intensity, better of two orientations.

B17: CACACA_site8226 (dsDNA)
DNA 1: TGATAACCTAATAATACACACACATGAATATATATA
DNA 2: TATATATATTCATGTGTGTGTATTATTAGGTTATCA
For B17, the binding signal is 9.76 ln median PBM intensity, better of two orientations.

B18: CACACA_site2783 (dsDNA)
DNA 1: TATGAAAGAAATAGTACACACATAAACATTTGTAAA
DNA 2: TTTACAAATGTTTATGTGTGTACTATTTCTTTCATA
Turning to B18, the binding signal is 9.73 ln median PBM intensity, better of two orientations.

B19: CACACA_site4748 (dsDNA)
DNA 1: GCCTTTTAGTATTTCACACACGTAAATGAGTATATC
DNA 2: GATATACTCATTTACGTGTGTGAAATACTAAAAGGC
On to B19, for which the binding signal is 9.63 ln median PBM intensity, better of two orientations.

B20: CACACA_site4200 (dsDNA)
DNA 1: TGTCCCCCTTTCTATGCACACTTTAAATTATTCAAA
DNA 2: TTTGAATAATTTAAAGTGTGCATAGAAAGGGGGACA
Take B20: the binding signal was 9.68 ln median PBM intensity, better of two orientations.

B21: CACACA_site76 (dsDNA)
DNA 1: GGCAGCAATTTAGTTACACACATATATAGGTATACA
DNA 2: TGTATACCTATATATGTGTGTAACTAAATTGCTGCC
With B21, the binding signal was 9.67 ln median PBM intensity, better of two orientations.

B22: CACACA_site478 (dsDNA)
DNA 1: AAAAAAAAAAAAAAAACACACAAATCATAAATAAAT
DNA 2: ATTTATTTATGATTTGTGTGTTTTTTTTTTTTTTTT
As for B22, the binding signal is 9.63 ln median PBM intensity, better of two orientations.

B23: CACACA_site1373 (dsDNA)
DNA 1: TACAAAATATATATGACACACATAAAAAAAAGTATA
DNA 2: TATACTTTTTTTTATGTGTGTCATATATATTTTGTA
As for B23, the binding signal is 9.69 ln median PBM intensity, better of two orientations.

B24: CACACA_negctrl_site896 (dsDNA)
DNA 1: TGATTAAAAGAGGGAAAAAAAAAAAAAAAAAAAAAA
DNA 2: TTTTTTTTTTTTTTTTTTTTTTCCCTCTTTTAATCA
As to B24, the binding signal is 8.33 ln median PBM intensity, better of two orientations.

B25: CACACA_site9117 (dsDNA)
DNA 1: AAAAAAAAAAAAAAAACACACATACACCCCCACCCA
DNA 2: TGGGTGGGGGTGTATGTGTGTTTTTTTTTTTTTTTT
With B25, the binding signal is 10.7 ln median PBM intensity, better of two orientations.

B26: CACACA_site9348 (dsDNA)
DNA 1: TATATTTTGTTCTTTCCACACACAAATACATATATT
DNA 2: AATATATGTATTTGTGTGTGGAAAGAACAAAATATA
With B26, the binding signal is 9.82 ln median PBM intensity, better of two orientations.

B27: CACACA_site8696 (dsDNA)
DNA 1: TGGGAAAAAATATATGCACACCCCCCAAAAAAAAAA
DNA 2: TTTTTTTTTTGGGGGGTGTGCATATATTTTTTCCCA
B27: the binding signal is 10.7 ln median PBM intensity, better of two orientations.

B28: CACACA_site6737 (dsDNA)
DNA 1: TAAAAAATAAAATACACACACATATTTATATTTATA
DNA 2: TATAAATATAAATATGTGTGTGTATTTTATTTTTTA
Consider B28, for which the binding signal was 9.78 ln median PBM intensity, better of two orientations.

B29: CACACA_site2584 (dsDNA)
DNA 1: ATTGCTTTTCTTTTTGCACACTTATGCATATATATA
DNA 2: TATATATATGCATAAGTGTGCAAAAAGAAAAGCAAT
Consider B29, for which the binding signal was 9.72 ln median PBM intensity, better of two orientations.

B30: CACACA_negctrl_site1405 (dsDNA)
DNA 1: ATGAAAAAAAAAAAAAAAAAAAAAAAAAAAAAAAAA
DNA 2: TTTTTTTTTTTTTTTTTTTTTTTTTTTTTTTTTCAT
Regarding B30, the binding signal is 8.53 ln median PBM intensity, better of two orientations.

B31: CACACA_site6075 (dsDNA)
DNA 1: AATAAATAAGCACATACACACATACATACATACATA
DNA 2: TATGTATGTATGTATGTGTGTATGTGCTTATTTATT
Turning to B31, the binding signal was 9.71 ln median PBM intensity, better of two orientations.

B32: CACACA_site6811 (dsDNA)
DNA 1: CATATAAAGATATGAACACACAAAAAGAATATTTCC
DNA 2: GGAAATATTCTTTTTGTGTGTTCATATCTTTATATG
In the case of B32, the binding signal is 9.72 ln median PBM intensity, better of two orientations.

B33: CACACA_site6753 (dsDNA)
DNA 1: GAAGTAATTTCATATACACACATATACATACATACA
DNA 2: TGTATGTATGTATATGTGTGTATATGAAATTACTTC
For the molecule B33, the binding signal is 9.62 ln median PBM intensity, better of two orientations.

B34: CACACA_site8689 (dsDNA)
DNA 1: AAAAAAAAAACACGCGCACACACACCCACCCACCCA
DNA 2: TGGGTGGGTGGGTGTGTGTGCGCGTGTTTTTTTTTT
Turning to B34, the binding signal was 10.7 ln median PBM intensity, better of two orientations.

B35: CACACA_site2206 (dsDNA)
DNA 1: AAAAAAAACACGCGCACACACACACCCACCCACCGA
DNA 2: TCGGTGGGTGGGTGTGTGTGTGCGCGTGTTTTTTTT
B35: the binding signal was 10.7 ln median PBM intensity, better of two orientations.

B36: CACACA_site8811 (dsDNA)
DNA 1: TTAAAAATATATATAACACACACATAATATATATAT
DNA 2: ATATATATATTATGTGTGTGTTATATATATTTTTAA
As to B36, the binding signal was 9.8 ln median PBM intensity, better of two orientations.

B37: CACACA_site4181 (dsDNA)
DNA 1: GGATATATTTTATGTACACACACATATAAGGGATTA
DNA 2: TAATCCCTTATATGTGTGTGTACATAAAATATATCC
For the molecule B37, the binding signal is 9.74 ln median PBM intensity, better of two orientations.

B38: CACACA_site2997 (dsDNA)
DNA 1: CATAATTATGCAATTGCACACAACTATCATTTTTTT
DNA 2: AAAAAAATGATAGTTGTGTGCAATTGCATAATTATG
For the molecule B38, the binding signal was 9.61 ln median PBM intensity, better of two orientations.

B39: CACACA_site407 (dsDNA)
DNA 1: ATATTATATTATATAACACACATTTTTCATAACACT
DNA 2: AGTGTTATGAAAAATGTGTGTTATATAATATAATAT
In the case of B39, the binding signal is 9.58 ln median PBM intensity, better of two orientations.

B40: CACACA_site4569 (dsDNA)
DNA 1: TTGCCCATTTCATTAACACACAAATGTTTATATTCT
DNA 2: AGAATATAAACATTTGTGTGTTAATGAAATGGGCAA
Turning to B40, the binding signal is 9.7 ln median PBM intensity, better of two orientations.

B41: CACACA_site5088 (dsDNA)
DNA 1: CCAACATAGAGGGGCACACACATATATACCTAAAAA
DNA 2: TTTTTAGGTATATATGTGTGTGCCCCTCTATGTTGG
For B41, the binding signal was 9.64 ln median PBM intensity, better of two orientations.
